Here are results for one substance from patent US20050250143.

The test system of the series is Myc-tagged MIF1/MSP58 protein (plasmid pCM562), expressed in CHO stable clone #34.
Chain of Myc-tagged MIF1/MSP58 protein (plasmid pCM562), expressed in CHO stable clone #34 (chain, as listed by the source): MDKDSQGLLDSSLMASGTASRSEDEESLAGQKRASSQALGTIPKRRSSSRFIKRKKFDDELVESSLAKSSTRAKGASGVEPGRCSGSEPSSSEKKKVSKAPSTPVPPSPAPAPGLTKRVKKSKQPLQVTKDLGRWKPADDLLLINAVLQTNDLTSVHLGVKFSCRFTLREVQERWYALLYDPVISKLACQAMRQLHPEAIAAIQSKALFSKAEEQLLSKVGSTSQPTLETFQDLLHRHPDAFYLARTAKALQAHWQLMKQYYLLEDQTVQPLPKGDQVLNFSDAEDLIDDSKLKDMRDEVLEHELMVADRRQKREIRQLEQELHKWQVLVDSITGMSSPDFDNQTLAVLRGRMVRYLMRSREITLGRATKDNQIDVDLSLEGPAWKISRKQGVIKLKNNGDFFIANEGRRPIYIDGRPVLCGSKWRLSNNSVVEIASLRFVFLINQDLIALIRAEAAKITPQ

With “MEKK1 of CHO cells (cellular, activated by sorbitol)”, the “JNK activation (in vitro GST-Jun(1-223) phosphorylation) after 200 mM sorbitol, CHOMIF1 #34 against CHOpCDNA3” value is “Cells expressing MIF1 showed an inhibition of JNK activation (revelated by weak GST-JUNphosphorylation) in response to sorbitol incubation”.
